This note sets out measurements from patent US20250019737A1 (TECHNOLOGY INNOVATION MOMENTUM FUND ISRAEL LIMITED …, published 2025).

In this experiment the target is T1, Ubiquitin R42E, R72E, untagged free mono-Ub (Homo sapiens (Human), UniProt P0CG47 1-76).
T1 construct: also called Ub R42E, R72E
The experiment in a line: SPR, immobilized His6-MBP-ENTH on Ni2+ chip, Ub mutant as analyte, single-site model. On the technique in general: In SPR one partner is held on a chip, and binding of the other changes the refractive index at the surface.

B1: His6-MBP-ENTH, ENTH domain of yeast Ent1(1-152) (other, yeast (Saccharomyces cerevisiae), UniProt Q12518 1-152, looked up, not shown: small tags and cut ends; large carriers)
chain: MSKQFVRSAKNLVKGYSSTQVLVRNATSNDNHQVSKDSLIELAEKSYDSADFFEIMDMLDKRLNDKGKYWRHIAKALTVIDYLIRFGSENCVLWCRENLYIIKTLKEFRHEDDEGIDQGQIVRVKAKELTALLSDDERLNEERNMNIKGRNR
notes: range 1-152; also called yeast ENTH
On to B1, for which the “fold lower affinity than the wild-type complex” value was roughly 2.6 fold.
